{"source": "paper PMC3196492", "about": "“APOE Genotype-Function Relationship: Evidence of −491 A/T Promoter Polymorphism Modifying Transcription Control but Not Type 2 Diabetes Risk”", "target": "ATF4 (human (ORF from 293 cells), UniProt P18848 1-351)", "sequence (P18848 whole entry)": "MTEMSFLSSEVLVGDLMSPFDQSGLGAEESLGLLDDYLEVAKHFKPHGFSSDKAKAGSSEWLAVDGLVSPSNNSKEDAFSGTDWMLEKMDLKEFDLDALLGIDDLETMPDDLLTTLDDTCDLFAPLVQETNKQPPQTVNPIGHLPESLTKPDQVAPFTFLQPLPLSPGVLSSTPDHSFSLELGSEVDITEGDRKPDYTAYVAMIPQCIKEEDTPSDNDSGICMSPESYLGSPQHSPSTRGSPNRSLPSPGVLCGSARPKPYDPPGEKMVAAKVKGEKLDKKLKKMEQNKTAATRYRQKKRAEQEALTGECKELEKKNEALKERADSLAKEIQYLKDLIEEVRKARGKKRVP", "experiment": "EMSA; 1.2 uM ATF4, 3 nM probe; excess unlabeled probe competes completely; supershift with anti-ATF4 at 0.7 uM ATF4; 20 ul EMSA, 3 nM DIG-labeled probe, Roche kit instructions; buffer, salt, pH and temperature not stated", "settings": "protein: recombinant; tags: His-tag; chain copies: 2; label: DIG; blunt"}
{"binder": "APOE promoter -491A probe (-521 to -461) (dsDNA) DNA 1: GTTTCACCATGTTGGCCAGGCTGGTCTCAAACTCCTGACCTTAAGTGATTCGCCCACTGTG DNA 2: CACAGTGGGCGAATCACTTAAGGTCAGGAGTTTGAGACCAGCCTGGCCAACATGGTGAAAC", "values": [{"measurement": "binding result", "value": "binds"}]}
